Assay results: PMC3091956

Target: T1, 6xHis-Stg (N-terminally histidine-tagged full-length mouse stargazin) (mouse), O88602
T1 chain: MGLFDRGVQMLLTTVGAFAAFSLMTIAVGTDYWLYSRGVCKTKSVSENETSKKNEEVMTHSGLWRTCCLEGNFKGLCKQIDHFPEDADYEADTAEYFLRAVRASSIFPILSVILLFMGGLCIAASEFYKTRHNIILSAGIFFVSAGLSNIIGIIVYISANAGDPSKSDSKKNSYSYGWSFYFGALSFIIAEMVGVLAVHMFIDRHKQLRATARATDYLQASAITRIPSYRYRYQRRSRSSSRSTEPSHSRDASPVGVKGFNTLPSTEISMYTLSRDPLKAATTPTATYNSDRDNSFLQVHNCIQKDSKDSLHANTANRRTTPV
Experiment: electron crystallography of 2D crystals
Conditions: remark: other sources report otherwise

B1: 6xHis-Stg (N-terminally histidine-tagged full-length mouse stargazin), O88602 1-323 (natural protein)
chain: MGLFDRGVQMLLTTVGAFAAFSLMTIAVGTDYWLYSRGVCKTKSVSENETSKKNEEVMTHSGLWRTCCLEGNFKGLCKQIDHFPEDADYEADTAEYFLRAVRASSIFPILSVILLFMGGLCIAASEFYKTRHNIILSAGIFFVSAGLSNIIGIIVYISANAGDPSKSDSKKNSYSYGWSFYFGALSFIIAEMVGVLAVHMFIDRHKQLRATARATDYLQASAITRIPSYRYRYQRRSRSSSRSTEPSHSRDASPVGVKGFNTLPSTEISMYTLSRDPLKAATTPTATYNSDRDNSFLQVHNCIQKDSKDSLHANTANRRTTPV
stoichiometry N: 2
